First the molecules themselves.
B1: TPR t1 (parent)
chain: GACCAAUCUGCCCUCAGAGCUCGAGAACAUCUUCGGAUGCAGAGGAGGCAGGCUUCGGUGGCGCGAUAGCGCCAACGUCCUCAACCUCCAAUGCAUCCCACCACAUGAUGAUGCCUGAAGAGCCUUGGUUUUUUG

The variants in this data set derive from B1. The data set can be described thus: polymerase ribozyme fitness, log enrichment relative to wild type (log ratio); higher = more active; in vitro selection for triplet polymerase activity. The gist of the method: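 A single round of triplicate in vitro selection, including frozen incubation at −7 °C, was applied to PCR-built, transcribed mutant libraries of each subunit of a heterodimeric triplet polymerase ribozyme. Illumina sequencing of input and output libraries retained genotypes with ≥10 input reads and ≥1 read per output. Fitness is the base-2 logarithm of genotype enrichment divided by wild-type enrichment, from inverse-variance-weighted replicate averages.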
For GACCAAUCUGCCCUCAGAGCUCGAGAACAUCUUCGGAUGCAGAGGAGGCCGGCUUCGGUGGCGCGAUAGAGCCAACGUCCUCAACCUCCAAUGCAUCCCACCACAUGAUGAUGCCUGAAGAGCCUUGGUUUUUUG [A50C C70A], the “polymerase ribozyme fitness (log ratio)” value was -2.58.

For GACCAAUCUGGCCUCAGAGCUCGAGAACAUCUUCGGAUGCAGAGGAGGCAGGCUUCGGUGGCGCGAUAGCGCCAAUGUCCUCAACCUCCAAUGCAUCCAACCACAUGAUGAUGCCUGAAGAGCCUUGGUGUUUUG [C11G C76U C99A U130G], the “polymerase ribozyme fitness (log ratio)” value was -6.95. The same measure for GACCAAUCUGCCCUCAGAGCUCGAGAACAUCUUCGGAUGCAGAGGAGGCAGGCUUCGGUGGCGCGAUAGCUCCAACGUCCUCAACCACCAAUGCAUCCCACCACAUGAUGAUGCCUGAAGAGCCUUGGUUUUUUG [G71U U87A]: -1.3; for GACCAAUCUGCCCUCAGAGCUCGAGAAGAUCUUCGGAAGCAGAGGAGGCAGGCUUCGGUGGCGCGAUAGCGCCAACGUCCUCAACUUCCAAUGCAUCCCACCACAUGAUGAUGCCUGAAGAGCCUUGGUUUUUUG [C28G U38A C86U]: -5.02; for GACCAAUCUGCCCUCAGAGCUUGAGAACAUCUUCGGAUGCAGAGGAGGCAGGGUUCGGUGACGCGAUAGCGCCAACGUCCUCAACCUCCAAUGCAUCCCACCACAAGAUGAUGCCUGGAGAGCCUUGGUUUUUUG [C22U C53G G61A U106A A118G]: -5.66. Under GACCAAUCUGCCCUCAGAGCUCGAGAACAUCUUCGGAUGCAGAGGAGGCAGGCUUCGGUGGCGCGAUAGCGCCUACGUCCUCAACUUCCAAUGCAUCCCACCACAUGAUGAUGCCUGAAGAGCCUUGGUUUUUUG [A74U C86U] stands -0.818. Under GACCAAUCUGCCCUCAGAGCUCGAGAACAUCUUCGGGUGCAGAGGAGGCAGGCUUCGGUGGCGCGAUAGCGCAAACGUCCUCAACCUCCAAUGCAACCCACCACAUGAUGAUGCCUGAAGAGCCUUGGUUUUUUG [A37G C73A U96A] stands -3.88. For the variant GACCAAUCUGCCGUCAGAGCUCGACAACAUCUUCGGAUGCAGAGGAGGAAGGCUUCGGUGGCGCGAUAGCGCCAACGUCCUCAACCUCCAAUGCAUCUCACCACAUGAUGAAGCGUGAAGAGCCUUGGUUUUUUG [C13G G25C C49A C98U U112A C115G], the “polymerase ribozyme fitness (log ratio)” value was -7.45. The same measure for GACCAAUCUGCCCUCAGAGCUCGAGAACAUCUUCGGAUGCAGCGGAGCCAGGCUUCGGUGGCGCGAUAGCACCAACGUCCUCAACCUCCAAUGCAUCCCACCACAUGAUGAUGCCUGAAGAGCCUUGGUUUUUUG [A43C G48C G71A]: -4.5; for GACCAAUCUGCCCUCAGAGCUGGAGAACAUCUUCGGAUGCAGAGGAGGCAGGCUUCGGUGGCGCGAUGGCGCCAACGUCCUCAACCUCCAAUGCAUCCCACCACAUGAUGAUGCCUGAAGAGCCUUGGUUUUUUG [C22G A68G]: -5.5. The same measure for GACCAAUCUGCCCUCAGAGCUCGAGAACAUCUUCGGAUGCAGAGGAGGCAGGCUUCGGUGGUGCGAUAGCGCCAACGUCCUUAACCUCCAAUGCAUCCCACCACAUGAUGAUGCCUGAAGAGCCUUGGUUUUUUG [C62U C82U]: 1.12. Under GACCAAUCUGCCCUCAGAGCUCGAGAACAUCUUCGGAUGCAGAGGAGGCAGGCUUCGGUGGCGCGAUAGCGACAACGACCUCAACCUCCAAUGCAUCCCACCACAUGAUGAUGCCUGAAGAGCAUUGGUUUCAUG [C72A U78A C124A U132C U133A] stands 1.3; under GACCAAUCUGCACUCAGAGCUCGAGAACAUCUUCGGAUGCAGAGGAGGCAGGCUUCGGUGGCGCGAUAGCGCCAACGUCCUCAACCUCCAAUGCAUCCCACCACAUGAUGAUGCCUCAAGCGCCUUGGUUUAUUG [C12A G117C A121C U132A], -5.13; under GACCAAUCUGCCCUCAGAGCUCGAGAACAUCUUCGGAUGCAGAGGAGGCAGGCUUCGGUGGCGCGAUAGCCCCAACGUCCUCUACCUCCAAUGCAUCCCACCACAUGAUGAUGCCUGAAGAGCCUUGGUUUUUUG [G71C A83U], -1.19. For GACCAAUCUGCCCCAAGAGCUCGAGAACAUCUUCGGAUGCAGAGGCGGCAGGCUUCGGUGGCGCGAUAGCGCCAACGUCCUCAACCUCCAAUGCAUCCCACCACAUGAUGAUGCCUGAAGAGCCUUGGUUUUUUG [U14C C15A A46C], the “polymerase ribozyme fitness (log ratio)” value was -5.53.

On to GACCAAUCUGCCCUCAGAGCUCGAGAACAUCUGCGGAUGCAGAGGAGGCAGGCUUCGGGGGCGCGAUAGCGCCAACGUCCUCAACCUCCAAUGCAUCCCACCACAUGAUAAUGCCUGAAGAGCCUUGGUUUUUUG [U33G U59G G110A], for which the “polymerase ribozyme fitness (log ratio)” value was -5.54. Take GACCAAUCUGCCCUCAGAGCUCGAGAACAUCUUCGGAUGCAGAGGAGGCAGGCUUCGGUCGCGCGGUAGCGCCAACGUCCUAAACCUCCAAUGCAUCCCACCACAUGAUGAUGCCUGAAGAGCCUUGGUUUUUUG [G60C A66G C82A]: the “polymerase ribozyme fitness (log ratio)” value is -1.84.

As for GCCCAAUCUGCCCUCAGAGCUCGAGAACAUCUUCGGAUGCAGAGGAGGCAGGCUUCGGUGGCGCGAUAGCGCCAACGUCCUCAACCUCCAAUGCAUCCCACCACAUGAUCAUGCCUGAAGAGCCUUGGUUUUUUG [A2C G110C], the “polymerase ribozyme fitness (log ratio)” value was -6.21.

GACCAAUCUGCCCUCAGAGUUCGAGAACAUCUUCGGAUGCAGAGGAGGCAGCCUUCGGUGGCGCGAUAGCGCCAACGUCCUCAACCUCCAAUGCAUCCCACCACAUGAUGAUGCCUGAAGAGCCUUGGUUUUUUG [C20U G52C]: the “polymerase ribozyme fitness (log ratio)” value was -2.19. Consider GACCAAUCUGCUCUCAGAGUUCGAGAACAUCUUCGGAUGCAGUGGAGGCAGGCUUCGGUGGCGCGAUAGCGUCAACGUCCUAAACCUCCAAUGCAUCCCACCACAUGAUGAAGGCUGAAGAGCCUUGGUUUUUUG [C12U C20U A43U C72U C82A U112A C114G], for which the “polymerase ribozyme fitness (log ratio)” value was -2.38. Under GACCAAUCUGCCCUCAGAGUUCGAGAACAUCUUCGGAUGCAGAGGAGGCAGGCUUCGGUGGCGCGAUAGCGCAAACGUCCACAACCUCCAAUGCAACCCACCACAUGAUGAUGCCUGAAGUGCUUUGGUUUUUAU [C20U C73A U81A U96A A121U C124U U134A G135U] stands -0.843.

Values taken from the RNAGym collection of RNA variant scans (doi:10.1073/pnas.2313332121).
